The EC50 (read off the curve) is the concentration giving half of the maximal effect.

The test system of one experiment is PP2Ac. As to the kind of experiment: Summary of detection properties of C-terminal PP2Ac antibodies (Table 4), PP2Ac. The format is binding. As for the experimental part:
Examples of antibodies with a preference for non-methylated PP2Ac are mouse monoclonal antibody 4B7 (Yu (2001), Mol Biol Cell 12, 185-199), mouse monoclonal antibody 1D7 generated by the Ogris lab but also the rabbit monoclonal E155 antibody from Abeam and the mouse monoclonal F-8 from SCBT that were thought to be specific for pTyr^307.
E155 was tested for its specificity to phosphorylation and methylation on the carboxy-terminus of PP2A on 6 different undecapeptides by ELISA (FIGS. 18 and 19). Flat-bottom Nunc-Immuno Medisorp 96-well ELISA plates (Thermo; 467320) were coated o/n at 4° C. with 50 μl of either a peptide of the sequence ac-HVTRRTPDYFL-OH (L309) (SEQ ID NO:18) at a concentration of 2 μg/ml, a peptide of the sequence ac-HVTRRTPDYFL-CH3 (meL309) (SEQ ID NO:18) at a concentration of 2 μg/ml in TBS (137 mM NaCl (AppliChem, #131659, 2.7 mM KCl (AppliChem, #131494.), 24.8 mM Tris (AppliChem, #A1086), pH 7.4 with HCl), with a peptide of the sequence ac-HVTRRpTPDYFL-OH (pT304-L309) (SEQ ID NO:116) at a concentration of 2 μg/ml in TBS, or with a peptide of the sequence ac-HVTRRpTPDYFL-CH3 (pT304-meL309) (SEQ ID NO:116) at a concentration of 2 μg/ml in TBS (FIG. 18). The wells were washed once with TBS, blocked with 200 μl of 2% bovine serum albumin (BSA) (Sigma, A9647) in TBS for 1 hour at RT and washed again once with TBS. […] Bound antibodies were detected colorimetrically by addition of 50 μl of 33 μg/ml […] (TMB) (Sigma, T2885) in 0.1 M sodium acetate pH 6.0 and 0.01% H2O2 (Sigma, H1009). The colorimetric reaction was stopped after 10 min by addition of 50 μl 0.5 M H2SO4, and absorbance was measured at 450 nm and 560 nm with a Perkin Elmer VICTOR® Nivo™ microplate reader. The results from 560 nm read were subtracted from the 450 nm read.
In a further experiment, flat-bottom Nunc-Immuno Medisorp 96-well ELISA plates (Thermo; 467320) were coated o/n at 4° C. with 50 μl of either a peptide of the sequence ac-HVTRRTPDYFL-OH (L309) (SEQ ID NO:18) at a concentration of 2 μg/ml in TBS (137 mM NaCl (AppliChem, #131659, 2.7 mM KCl (AppliChem, #131494.), 24.8 mM Tris (AppliChem, #A1086), pH 7.4 with HCl), a peptide of the sequence ac-HVTRRTPDYFL-CH3 (meL309) (SEQ ID NO:18) at a concentration of 2 μg/ml in TBS (137 mM NaCl (AppliChem, #131659.1214, 2.7 mM KCl (AppliChem, #131494.1211) pH 7.4 with HCl), with a peptide of the sequence ac-HVTRRTPDpYFL-OH (pY307-L309) (SEQ ID NO:117) at a concentration of 2 μg/ml in TBS or with a peptide of the sequence ac-HVTRRTPDpYFL-CH3 (pY307-meL309) (SEQ ID NO:117) at a concentration of 2 μg/ml in TBS (FIG. 19). […] The colorimetric reaction was stopped after 10 min by addition of 50 μl 0.5 M H2SO4, and absorbance was measured at 450 nm and 570 nm with a Biotek Synergy™ H1 microplate reader. […]

Experiment [1] concerns the target PP2Ac C-terminal peptide pY307-meL309, ac-HVTRRTPDpYFL-CH3 (human). Put plainly: ELISA, 4-fold dilution series of coated peptide, hybridoma supernatant 1:50, normalized. Background: ELISA stands for enzyme-linked immunosorbent assay.
[2] abbreviates: antibodies screened for binding methylated PP2Ac.

B1: 7C10-C5: α-carboxymethylation specific mouse monoclonal IgG1 antibody from single clone hybridoma 7C10-C5 (DSM ACC3350) (antibody)
heavy: MYRMQLLSCIALSLALVTNSDVQLQESGPGLVKPSQSLSLTCSVTGYSITSGYYWNWIRQFPGNKLEWMGYISYDGSNNYNPSLKNRISITRDTSKNQFFLKLNSVTTEDTATYYCAGRFAYWGQGTLVTVSAAKTTAPSVYPLAPVCGDTTGSSVTLGCLVKGYFPEPVTLTWNSGSLSSGVHTFPAVLQSDLYTLSSSVTVTSSTWPSQSITCNVAHPASSTKVDKKIEPRGPTIKPCPPCKCPAPNLLGGPSVFIFPPKIKDVLMISLSPIVTCVVVDVSEDDPDVQISWFVNNVEVHTAQTQTHREDYNSTLRVVSALPIQHQDWMSGKEFKCKVNNKDLPAPIERTISKPKGSVRAPQVYVLPPPEEEMTKKQVTLTCMVTDFMPEDIYVEWTNNGKTELNYKNTEPVLDSDGSYFMYSKLRVEKKNWVERNSYSCSVVHEGLHNHHTTKSFSRTPGK
light: MDMRVPAQLLGLLLLWLSGARCDVLMTQTPLSLPVSLGDQASISCRSSQSIVHSNGNTYLEWYLQKPGQSPKLLIYKVSNRFSGVPDRFSGSGSGTDFTLKINRVEAEDLGVYYCFQGSHVPWTFGGGTKLEIKADAAPTVSIFPPSSEQLTSGGASVVCFLNNFYPKDINVKWKIDGSERQNGVLNSWTDQDSKDSTYSMSSTLTLTKDEYERHNSYTCEATHKTSTSPIVKSFNRNEC
modifications: Amino acid sequence of the recombinant 7C10-C5 heavy chain; Amino acid sequence of the recombinant 7C10-C5 light chain
In the case of B1, in the experiment with PP2Ac (PP2Ac carboxymethylated at Leu309), the “meLeu^309” value is recorded as “*** (*** 80-100%)”. Further, in the experiment on PP2Ac (setting [2]), the “pThr^304 meLeu^309” value was “**** (**** >100%)” and the “pTyr^307 meLeu^309” value is given as “*** (*** 80-100%)”. Also, the unmodified result in the experiment on PP2Ac (unmodified PP2Ac C-terminus) was “— (— <15%)”.

B2: 7C10-C5 monoclonal antibody (antibody, V domains shown)
VH: DVQLQESGPGLVKPSQSLSLTCSVTGYSITSGYYWNWIRQFPGNKLEWMGYISYDGSNNYNPSLKNRISITRDTSKNQFFLKLNSVTTEDTATYYCAGRFAYWGQGTLVTVSA
VL: DVLMTQTPLSLPVSLGDQASISCRSSQSIVHSNGNTYLEWYLQKPGQSPKLLIYKVSNRFSGVPDRFSGSGSGTDFTLKINRVEAEDLGVYYCFQGSHVPWTFGGGTKLEIK
notes: Used as hybridoma culture supernatant (ELISA, Western blot, IHC) or at 50 µg/mL (SPR); also called 7C10 X63; clone 7C10-C5
B2 registered an EC50 (read off the curve) in experiment [1] of 0.3 µg/mL.

The values above are taken from patent US20230121197A1, “ANTIBODIES SPECIFICALLY BINDING THE CARBOXYMETHYLATED CATALYTIC SUBUNIT OF PROTEIN PHOSPHATASE 2A” (Medizinische Universität Wien, priority 2020, published 2023).
